For experiment [1], the target named is T1, BCMA expressed on target cells (CHO-K1-BCMA recombinant cell line; MM.1S; RPMI8226) (human, UniProt Q02223 1-184).
T1 sequence (looked up): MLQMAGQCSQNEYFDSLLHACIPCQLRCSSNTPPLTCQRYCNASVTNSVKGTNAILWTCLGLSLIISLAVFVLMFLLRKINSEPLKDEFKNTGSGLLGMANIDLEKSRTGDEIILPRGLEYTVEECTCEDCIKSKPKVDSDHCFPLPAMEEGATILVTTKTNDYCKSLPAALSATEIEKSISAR
The experiment in a line: cell-based or functional assay.

The target in experiment [2] is T2, CD19 expressed on Nalm6 cells (UniProt P15391 20-556, limits assumed).
T2 sequence (looked up): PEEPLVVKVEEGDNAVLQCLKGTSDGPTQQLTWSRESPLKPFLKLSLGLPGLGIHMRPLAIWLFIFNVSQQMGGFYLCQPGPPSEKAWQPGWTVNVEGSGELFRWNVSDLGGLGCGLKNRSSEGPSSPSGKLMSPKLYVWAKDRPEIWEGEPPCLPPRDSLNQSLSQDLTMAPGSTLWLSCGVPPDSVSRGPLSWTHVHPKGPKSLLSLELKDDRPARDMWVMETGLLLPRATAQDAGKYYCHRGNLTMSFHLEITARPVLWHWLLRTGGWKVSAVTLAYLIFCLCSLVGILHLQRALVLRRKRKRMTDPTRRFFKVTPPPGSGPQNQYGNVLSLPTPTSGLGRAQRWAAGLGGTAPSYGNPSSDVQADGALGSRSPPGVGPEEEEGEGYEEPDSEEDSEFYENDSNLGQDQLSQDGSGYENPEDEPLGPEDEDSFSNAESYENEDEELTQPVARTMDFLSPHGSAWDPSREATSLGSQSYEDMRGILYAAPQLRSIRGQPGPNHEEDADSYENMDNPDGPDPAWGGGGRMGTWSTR
The experiment in a line: cell-based or functional assay.

In another experiment the target is T3, human BCMA (antigen) (human, UniProt Q02223 1-54, limits assumed).
T3 construct: Antigen coupled to the CM5 chip in SPR; also called B-cell maturation antigen; TNFRF17
T3 sequence (looked up): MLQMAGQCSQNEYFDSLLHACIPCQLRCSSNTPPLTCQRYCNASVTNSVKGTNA
The experiment in a line: flow cytometry of lentivirus-transduced T cells labelled with antigen, 48 h after transduction; percent positive cells. The source says:
(§1) The nucleic acid sequence encoding the CAR was expressed under the drive of a promoter, therefore the lentivirus-transfected T cells could be labeled with an antigen or anti-CD19 antibody and measured by flow cytometry, to reflect the expression level of the CAR on the surface of the T cells.

The target in another experiment is T4, human CD19 (antigen) (human, UniProt P15391 20-291, limits assumed).
T4 sequence (looked up): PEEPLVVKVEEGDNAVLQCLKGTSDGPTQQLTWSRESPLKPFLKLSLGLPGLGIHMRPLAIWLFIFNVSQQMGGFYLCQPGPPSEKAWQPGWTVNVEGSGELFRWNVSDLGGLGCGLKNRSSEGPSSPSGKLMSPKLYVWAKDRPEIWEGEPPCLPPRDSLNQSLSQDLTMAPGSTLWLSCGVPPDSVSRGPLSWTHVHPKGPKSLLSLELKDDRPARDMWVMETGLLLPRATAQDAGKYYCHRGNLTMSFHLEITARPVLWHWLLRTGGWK
In words: flow cytometry of lentivirus-transduced T cells labelled with antigen or anti-CD19 antibody, 48 h after transduction; percent positive cells.
Excerpt: as §1

B1: TanCAR 06 (other)
chain: QVTLRESGPALVKPTQTLTLTCTFSGVSLPDYGVSWIRQPPGKALEWLAVIWGSETTYYNSALKSRLTISKDTSKNQVVLTMTNMDPVDTATYYCAKHYYYGGSYAMDYWGQGTTVTVSSGGGGSDIVMTQSPLSLPVTPGEPASISCRSSQSLVHSNGNTFLHWYLQKPGQSPQLLIYKVSNRFSGVPDRFSGSGSGTDFTLKISRVEAEDVGVYYCMQSTHVLTFGGGTKLEIKRAGGGGSGGGGSGGGGSGGGGSQVQLVQSGAEVKKPGASVKVSCKASGYTFTDYLMHWVRQAPGQGLEWMGWINTETGEPTYADDFKGRVTMTRDTSTSTVYMELSSLRSEDTAVYYCAPSLYYGYSWFTYWGQGTLVTVSGGGGSEIVLTQSPATLSLSPGERATLSCRASQDISKYLNWYQQKPGQAPRLLIYHTSRLHSGIPDRFSGSGSGTDFTLTISRLEPEDIAVYYCQQGNTLPYTFGQGTKLEITTTPAPRPPTPAPTIASQPLSLRPEACRPAAGGAVHTRGLDFACDIYIWAPLAGTCGVLLLSLVITLYCKRGRKKLLYIFKQPFMRPVQTTQEEDGCSCRFPEEEEGGCELRVKFSRSADAPAYKQGQNQLYNELNLGRREEYDVLDKRRGRDPEMGGKPRRKNPQEGLYNELQKDKMAEAYSEIGMKGERRRGKGHDGLYQGLSTATKDTYDALHMQALPPR
notes: Tandem (looped) bispecific chimeric antigen receptor on human T cells; built here from its parts without the signal peptide; also called TanCAR 06 CAR-T
On to B1, for which, in experiment [1], the “lysis rate of CHO-K1-BCMA-luc cells by CAR-T cells, ratio 0.25:1” value was found to be 31.9%; the “lysis rate of CHO-K1-BCMA-luc cells by CAR-T cells, ratio 0.5:1” value was found to be 48.3%; the “lysis rate of CHO-K1-BCMA-luc cells by CAR-T cells, ratio 1:1” value came out at 78.4%; the “lysis rate of CHO-K1-BCMA-luc cells by CAR-T cells, ratio 2:1” value stood at 92.9%. For the same molecule, in experiment [2], the “lysis rate of Nalm6-luc cells by CAR-T cells, ratio 0.25:1” value is 68.3%; the “lysis rate of Nalm6-luc cells by CAR-T cells, ratio 0.5:1” value turned out to be 62.9%; the “lysis rate of Nalm6-luc cells by CAR-T cells, ratio 1:1” value amounted to 88.9%; the “lysis rate of Nalm6-luc cells by CAR-T cells, ratio 2:1” value came out at 95.5%. Moreover, the “Positive rate of binding to BCMA” value with human BCMA (antigen) was 13.3%. Also, the “Positive rate of binding to CD19” value in the experiment with human CD19 (antigen) stood at 16.4%.

B2: TanCAR 10 (other)
chain: DIVMTQSPLSLPVTPGEPASISCRSSQSLVHSNGNTFLHWYLQKPGQSPQLLIYKVSNRFSGVPDRFSGSGSGTDFTLKISRVEAEDVGVYYCMQSTHVLTFGGGTKLEIKRAGGGGSGGGGSGGGGSQVQLVQSGAEVKKPGASVKVSCKASGYTFTDYLMHWVRQAPGQGLEWMGWINTETGEPTYADDFKGRVTMTRDTSTSTVYMELSSLRSEDTAVYYCAPSLYYGYSWFTYWGQGTLVTVSGGGGSGGGGSGGGGSGGGGSEVKLQESGPGLVAPSQSLSVTCTVSGVSLPDYGVSWIRQPPRKGLEWLGVIWGSETTYYNSALKSRLTIIKDNSKSQVFLKMNSLQTDDTAIYYCAKHYYYGGSYAMDYWGQGTSVTVSSGSTSGSGKPGSGEGSTKGDIQMTQTTSSLSASLGDRVTISCRASQDISKYLNWYQQKPDGTVKLLIYHTSRLHSGVPSRFSGSGSGTDYSLTISNLEQEDIATYFCQQGNTLPYTFGGGTKLEITESKYGPPCPPCPFWVLVVVGGVLACYSLLVTVAFIIFWVKRGRKKLLYIFKQPFMRPVQTTQEEDGCSCRFPEEEEGGCELRVKFSRSADAPAYKQGQNQLYNELNLGRREEYDVLDKRRGRDPEMGGKPRRKNPQEGLYNELQKDKMAEAYSEIGMKGERRRGKGHDGLYQGLSTATKDTYDALHMQALPPR
notes: Tandem bispecific chimeric antigen receptor on human T cells; built here from its parts without the signal peptide; also called TanCAR 10 CAR-T
Regarding B2, in experiment [1], the “lysis rate of CHO-K1-BCMA-luc cells by CAR-T cells, ratio 0.25:1” value worked out at 17.1%; the “lysis rate of CHO-K1-BCMA-luc cells by CAR-T cells, ratio 0.5:1” value came to 36%; the “lysis rate of CHO-K1-BCMA-luc cells by CAR-T cells, ratio 1:1” value worked out at 57.9%. Besides, in experiment [2], the “lysis rate of Nalm6-luc cells by CAR-T cells, ratio 0.25:1” value is 59.6%; the “lysis rate of Nalm6-luc cells by CAR-T cells, ratio 0.5:1” value is 77.4%; the “lysis rate of Nalm6-luc cells by CAR-T cells, ratio 1:1” value came to 91.5%. In addition, the “Positive rate of binding to BCMA” value in the experiment with human BCMA (antigen) was 39.8%. In addition, in the experiment with human CD19 (antigen), the “Positive rate of binding to CD19” value came out at 34.8%.

B3: TanCAR 08 (other)
chain: DIVMTQSPLSLPVTPGEPASISCRSSQSLVHSNGNTFLHWYLQKPGQSPQLLIYKVSNRFSGVPDRFSGSGSGTDFTLKISRVEAEDVGVYYCMQSTHVLTFGGGTKLEIKRAGGGGSGGGGSGGGGSQVQLVQSGAEVKKPGASVKVSCKASGYTFTDYLMHWVRQAPGQGLEWMGWINTETGEPTYADDFKGRVTMTRDTSTSTVYMELSSLRSEDTAVYYCAPSLYYGYSWFTYWGQGTLVTVSGGGGSGGGGSGGGGSGGGGSQVTLRESGPALVKPTQTLTLTCTFSGVSLPDYGVSWIRQPPGKALEWLAVIWGSETTYYNSALKSRLTISKDTSKNQVVLTMTNMDPVDTATYYCAKHYYYGGSYAMDYWGQGTTVTVSSGSTSGSGKPGSGEGSTKGEIVLTQSPATLSLSPGERATLSCRASQDISKYLNWYQQKPGQAPRLLIYHTSRLHSGIPDRFSGSGSGTDFTLTISRLEPEDIAVYYCQQGNTLPYTFGQGTKLEITTTPAPRPPTPAPTIASQPLSLRPEACRPAAGGAVHTRGLDFACDIYIWAPLAGTCGVLLLSLVITLYCKRGRKKLLYIFKQPFMRPVQTTQEEDGCSCRFPEEEEGGCELRVKFSRSADAPAYQQGQNQLYNELNLGRREEYDVLDKRRGRDPEMGGKPRRKNPQEGLYNELQKDKMAEAYSEIGMKGERRRGKGHDGLYQGLSTATKDTYDALHMQALPPR
notes: Tandem bispecific chimeric antigen receptor on human T cells; built here from its parts without the signal peptide; also called TanCAR 08 CAR-T
For B3, in experiment [1], the “lysis rate of CHO-K1-BCMA-luc cells by CAR-T cells, ratio 0.25:1” value came out at 12.3%; the “lysis rate of CHO-K1-BCMA-luc cells by CAR-T cells, ratio 0.5:1” value was found to be 38.4%; the “lysis rate of CHO-K1-BCMA-luc cells by CAR-T cells, ratio 1:1” value worked out at 65.9%. For the same molecule, in experiment [2], the “lysis rate of Nalm6-luc cells by CAR-T cells, ratio 0.25:1” value was 65.9%; the “lysis rate of Nalm6-luc cells by CAR-T cells, ratio 0.5:1” value is 83.8%; the “lysis rate of Nalm6-luc cells by CAR-T cells, ratio 1:1” value worked out at 92.2%. Moreover, in the experiment with human BCMA (antigen), the “Positive rate of binding to BCMA” value is 28.5%. Moreover, the “Positive rate of binding to CD19” value in the experiment with human CD19 (antigen) turned out to be 24.4%.

B4: TanCAR 05 (other)
chain: DIVMTQSPLSLPVTPGEPASISCRSSQSLVHSNGNTFLHWYLQKPGQSPQLLIYKVSNRFSGVPDRFSGSGSGTDFTLKISRVEAEDVGVYYCMQSTHVLTFGGGTKLEIKRAGGGGSQVQLVQSGAEVKKPGASVKVSCKASGYTFTDYLMHWVRQAPGQGLEWMGWINTETGEPTYADDFKGRVTMTRDTSTSTVYMELSSLRSEDTAVYYCAPSLYYGYSWFTYWGQGTLVTVSGGGGSGGGGSGGGGSGGGGSQVTLRESGPALVKPTQTLTLTCTFSGVSLPDYGVSWIRQPPGKALEWLAVIWGSETTYYNSALKSRLTISKDTSKNQVVLTMTNMDPVDTATYYCAKHYYYGGSYAMDYWGQGTTVTVSSGGGGSEIVLTQSPATLSLSPGERATLSCRASQDISKYLNWYQQKPGQAPRLLIYHTSRLHSGIPDRFSGSGSGTDFTLTISRLEPEDIAVYYCQQGNTLPYTFGQGTKLEITTTPAPRPPTPAPTIASQPLSLRPEACRPAAGGAVHTRGLDFACDIYIWAPLAGTCGVLLLSLVITLYCKRGRKKLLYIFKQPFMRPVQTTQEEDGCSCRFPEEEEGGCELRVKFSRSADAPAYKQGQNQLYNELNLGRREEYDVLDKRRGRDPEMGGKPRRKNPQEGLYNELQKDKMAEAYSEIGMKGERRRGKGHDGLYQGLSTATKDTYDALHMQALPPR
notes: Tandem bispecific chimeric antigen receptor on human T cells; built here from its parts without the signal peptide; also called TanCAR 05 CAR-T
For the molecule B4, in experiment [1], the “lysis rate of CHO-K1-BCMA-luc cells by CAR-T cells, ratio 0.25:1” value amounted to 26.6%; the “lysis rate of CHO-K1-BCMA-luc cells by CAR-T cells, ratio 0.5:1” value came out at 39.2%; the “lysis rate of CHO-K1-BCMA-luc cells by CAR-T cells, ratio 1:1” value was determined as 58.2%; the “lysis rate of CHO-K1-BCMA-luc cells by CAR-T cells, ratio 2:1” value is 79.8%. In experiment [2], the “lysis rate of Nalm6-luc cells by CAR-T cells, ratio 0.25:1” value came to 25.8%; the “lysis rate of Nalm6-luc cells by CAR-T cells, ratio 0.5:1” value is 42.4%; the “lysis rate of Nalm6-luc cells by CAR-T cells, ratio 1:1” value came to 67.7%; the “lysis rate of Nalm6-luc cells by CAR-T cells, ratio 2:1” value amounted to 91.2%. For the same molecule, the “Positive rate of binding to BCMA” value with human BCMA (antigen) worked out at 14.2%. Moreover, the “Positive rate of binding to CD19” value with human CD19 (antigen) was found to be 11.8%.

Values taken from patent US20230203178A1 (SICHUAN KELUN BIOTECH BIOPHARMACEUTICAL, published 2023).
